Values quoted from earlier work, collected in publication PMC8821138 (Food chemistry, 2021).

Details: ref Parisi et al., 2020; Yagami et al., 2000

NaD1: defensin, literature example of digestion resistance (RECKTESNTFPGICITKPPCRKACISEKFTDGHCSKILRRCLCTKPC; UniProt Q8GTM0 26-72, looked up)
Resistance in in vitro gastrointestinal digestions: demonstrated resistance
